Measured values published in PMC11481526.

Biological target: Toxoplasma gondii ABCB7-like (TgABCB7L), TGGT1_269000 (Toxoplasma gondii)
Experiment: native gel or EMSA; BN-PAGE (4-16% Bis-Tris) of ABCB7L-HA parasites solubilised in 1% βDDM on ice, immunoblot with anti-HA; bovine mitochondrial membranes as size marker

Toxoplasma gondii ABCB7-like (TgABCB7L), TGGT1_269000 (natural protein)
stoichiometry N: 2
